# Results from US20060229240A1 (GARDELL ET AL, published 2006).
# Where two headings read alike, the source gives them in different places. Positions of bridges follow the written chain, without caps; N, C: chain ends. Non-standard residues stand in square brackets, D forms with d. No end group written: not given here. hArg = N=C(N)NCCCC[C@H](N)C(=O)O; Aib = CC(C)(N)C(=O)O
# B1: [Aib^1,3, Ala^10]PTH(1-14) (peptide)
# peptide: [Aib]V[Aib]EIQLMHA[hArg]AKW-NH2
# modifications: N-terminus assumed
# SMILES: CC[C@H](C)[C@H](NC(=O)[C@H](CCC(=O)O)NC(=O)C(C)(C)NC(=O)[C@@H](NC(=O)C(C)(C)N)C(C)C)C(=O)N[C@@H](CCC(N)=O)C(=O)N[C@@H](CC(C)C)C(=O)N[C@@H](CCSC)C(=O)N[C@@H](Cc1c[nH]cn1)C(=O)N[C@@H](C)C(=O)N[C@@H](CCCCNC(=N)N)C(=O)N[C@@H](C)C(=O)N[C@@H](CCCCN)C(=O)N[C@@H](Cc1c[nH]c2ccccc12)C(N)=O
# B2: [Ala^6]PTH(1-11) (peptide)
# peptide: AVAEIALMHQR-NH2
# B3: [Lys^6, Glu^10]PTH(1-14) (peptide)
# peptide: AVAEIKLMHE[hArg]AKW-NH2
# modifications: N-terminus assumed
# SMILES: CC[C@H](C)[C@H](NC(=O)[C@H](CCC(=O)O)NC(=O)[C@H](C)NC(=O)[C@@H](NC(=O)[C@H](C)N)C(C)C)C(=O)N[C@@H](CCCCN)C(=O)N[C@@H](CC(C)C)C(=O)N[C@@H](CCSC)C(=O)N[C@@H](Cc1c[nH]cn1)C(=O)N[C@@H](CCC(=O)O)C(=O)N[C@@H](CCCCNC(=N)N)C(=O)N[C@@H](C)C(=O)N[C@@H](CCCCN)C(=O)N[C@@H](Cc1c[nH]c2ccccc12)C(N)=O
# B4: [Ala^10]PTH(1-11) (peptide)
# peptide: AVAEIQLMHAR-NH2
# B5: PTH(1-34) ([Tyr^34]hPTH(1-34)amide) (peptide)
# peptide: SVSEIQLMHNLGKHLNSMERVEWLRKKLQDVHNY-NH2
# notes: Human PTH(1-34) analog with Tyr at 34; also called [Tyr^34]hPTH(1-34)NH2; PTH(1-34) scaffold peptide
# B6: [Ala^6]PTH(1-34) (peptide)
# peptide: SVSEIALMHNLGKHLNSMERVEWLRKKLQDVHNY-NH2
# notes: Gln6->Ala analog of [Tyr^34]hPTH(1-34)amide
# B7: [Ala^6,10]PTH(1-34) (peptide)
# peptide: SVSEIALMHALGKHLNSMERVEWLRKKLQDVHNY-NH2
# notes: Double Ala analog of [Tyr^34]hPTH(1-34)amide
# B8: [Aib^1,3, Ala^6]PTH(1-14) (peptide)
# peptide: [Aib]V[Aib]EIALMHQ[hArg]AKW-NH2
# modifications: N-terminus assumed
# SMILES: CC[C@H](C)[C@H](NC(=O)[C@H](CCC(=O)O)NC(=O)C(C)(C)NC(=O)[C@@H](NC(=O)C(C)(C)N)C(C)C)C(=O)N[C@@H](C)C(=O)N[C@@H](CC(C)C)C(=O)N[C@@H](CCSC)C(=O)N[C@@H](Cc1c[nH]cn1)C(=O)N[C@@H](CCC(N)=O)C(=O)N[C@@H](CCCCNC(=N)N)C(=O)N[C@@H](C)C(=O)N[C@@H](CCCCN)C(=O)N[C@@H](Cc1c[nH]c2ccccc12)C(N)=O
# B9: [M]PTH(1-14) ([Ala^1,3,12,Gln^10,Har^11,Trp^14]PTH(1-14)amide; AlaValAlaGluIleGlnLeuMetHisGlnHarAlaLysTrp-amide) (peptide)
# peptide: AVAEIQLMHQ[hArg]AKW-NH2
# modifications: N-terminus assumed
# SMILES: CC[C@H](C)[C@H](NC(=O)[C@H](CCC(=O)O)NC(=O)[C@H](C)NC(=O)[C@@H](NC(=O)[C@H](C)N)C(C)C)C(=O)N[C@@H](CCC(N)=O)C(=O)N[C@@H](CC(C)C)C(=O)N[C@@H](CCSC)C(=O)N[C@@H](Cc1c[nH]cn1)C(=O)N[C@@H](CCC(N)=O)C(=O)N[C@@H](CCCCNC(=N)N)C(=O)N[C@@H](C)C(=O)N[C@@H](CCCCN)C(=O)N[C@@H](Cc1c[nH]c2ccccc12)C(N)=O
# B10: [Ala^6, Ala^10]PTH(1-11) (peptide)
# peptide: AVAEIALMHAR-NH2
# B11: [(Glu^6, Lys^10)lac.]PTH(1-14), cyclized via a 6-10 lactam bridge (peptide)
# peptide: AVAEIELMHK[hArg]AKW-NH2
# modifications: lactam 6-10; N-terminus assumed
# SMILES: CC[C@H](C)[C@H](NC(=O)[C@H](CCC(=O)O)NC(=O)[C@H](C)NC(=O)[C@@H](NC(=O)[C@H](C)N)C(C)C)C(=O)N[C@H]1CCC(=O)NCCCC[C@@H](C(=O)N[C@@H](CCCCNC(=N)N)C(=O)N[C@@H](C)C(=O)N[C@@H](CCCCN)C(=O)N[C@@H](Cc2c[nH]c3ccccc23)C(N)=O)NC(=O)[C@H](Cc2c[nH]cn2)NC(=O)[C@H](CCSC)NC(=O)[C@H](CC(C)C)NC1=O
# B12: [Glu^6, Lys^10]PTH(1-14) (linear) (peptide)
# peptide: AVAEIELMHK[hArg]AKW-NH2
# modifications: N-terminus assumed
# SMILES: CC[C@H](C)[C@H](NC(=O)[C@H](CCC(=O)O)NC(=O)[C@H](C)NC(=O)[C@@H](NC(=O)[C@H](C)N)C(C)C)C(=O)N[C@@H](CCC(=O)O)C(=O)N[C@@H](CC(C)C)C(=O)N[C@@H](CCSC)C(=O)N[C@@H](Cc1c[nH]cn1)C(=O)N[C@@H](CCCCN)C(=O)N[C@@H](CCCCNC(=N)N)C(=O)N[C@@H](C)C(=O)N[C@@H](CCCCN)C(=O)N[C@@H](Cc1c[nH]c2ccccc12)C(N)=O
# B13: [Aib^1,3, Ala^6,10]PTH(1-14) (peptide)
# peptide: [Aib]V[Aib]EIALMHA[hArg]AKW-NH2
# modifications: N-terminus assumed
# SMILES: CC[C@H](C)[C@H](NC(=O)[C@H](CCC(=O)O)NC(=O)C(C)(C)NC(=O)[C@@H](NC(=O)C(C)(C)N)C(C)C)C(=O)N[C@@H](C)C(=O)N[C@@H](CC(C)C)C(=O)N[C@@H](CCSC)C(=O)N[C@@H](Cc1c[nH]cn1)C(=O)N[C@@H](C)C(=O)N[C@@H](CCCCNC(=N)N)C(=O)N[C@@H](C)C(=O)N[C@@H](CCCCN)C(=O)N[C@@H](Cc1c[nH]c2ccccc12)C(N)=O
# How the values were obtained:
# [1] = biological target: T1, P1R-DelNt (truncated human P1R deleted for residues 24-181) (human, UniProt Q03431 182-593); assay: cell-based or functional assay
# T1 sequence (looked up): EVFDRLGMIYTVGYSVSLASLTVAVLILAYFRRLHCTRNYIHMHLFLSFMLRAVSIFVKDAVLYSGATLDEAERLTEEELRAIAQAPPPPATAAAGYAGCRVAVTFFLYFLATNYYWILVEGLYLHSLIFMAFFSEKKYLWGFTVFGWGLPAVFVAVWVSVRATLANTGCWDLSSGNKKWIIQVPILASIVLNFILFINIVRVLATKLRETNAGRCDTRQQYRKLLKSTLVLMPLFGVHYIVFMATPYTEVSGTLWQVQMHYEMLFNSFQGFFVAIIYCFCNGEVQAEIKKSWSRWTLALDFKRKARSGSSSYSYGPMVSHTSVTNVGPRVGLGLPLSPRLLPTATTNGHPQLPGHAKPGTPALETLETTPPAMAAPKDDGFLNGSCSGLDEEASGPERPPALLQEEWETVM
# [2] = biological target: T2, PTH/PTHrP receptor (P1R), wild-type, full-length (human, UniProt Q03431 27-593); assay: cell-based or functional assay
# T2 sequence (looked up): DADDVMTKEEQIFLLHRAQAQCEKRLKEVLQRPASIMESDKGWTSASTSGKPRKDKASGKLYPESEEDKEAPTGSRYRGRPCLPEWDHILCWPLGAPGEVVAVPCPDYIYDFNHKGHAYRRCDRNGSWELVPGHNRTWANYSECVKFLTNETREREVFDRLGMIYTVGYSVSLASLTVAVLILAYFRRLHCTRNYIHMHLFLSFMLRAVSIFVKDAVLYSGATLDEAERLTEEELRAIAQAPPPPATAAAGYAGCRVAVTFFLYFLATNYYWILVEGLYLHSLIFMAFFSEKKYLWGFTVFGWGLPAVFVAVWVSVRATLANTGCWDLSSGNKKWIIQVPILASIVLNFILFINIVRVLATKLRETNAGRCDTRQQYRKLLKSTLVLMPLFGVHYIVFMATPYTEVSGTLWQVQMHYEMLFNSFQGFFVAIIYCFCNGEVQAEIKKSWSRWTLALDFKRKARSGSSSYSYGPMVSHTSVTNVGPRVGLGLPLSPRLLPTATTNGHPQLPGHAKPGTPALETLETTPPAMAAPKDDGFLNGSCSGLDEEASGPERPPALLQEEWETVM
# [3] = biological target: T2, PTH/PTHrP receptor (P1R), wild-type, …; assay: cell-based or functional assay; remark: listed apart in the source
# [4] = biological target: T1, P1R-DelNt (truncated human P1R deleted …); assay: cell-based or functional assay; remark: listed apart in the source
# [5] = biological target: T2, PTH/PTHrP receptor (P1R), wild-type, …; assay: cell-based or functional assay; remark: listed apart in the source
# [6] = biological target: T2, PTH/PTHrP receptor (P1R), wild-type, …; assay: cell-based or functional assay; remark: listed apart in the source
# [7] = biological target: T2, PTH/PTHrP receptor (P1R), wild-type, …; assay: competition with 125I-[Ala3,12,Gln10,Har11,Trp14,Arg19,Tyr21]PTH(1-21)-amide tracer on HKRK-B28 cells expressing P1R
# Protocol: Competition Binding. Binding reactions were performed with […] cells or in COS-7 cells in 24-well plates. The cells were rinsed with 0.5 mL of binding buffer, and then treated successively with 100 μL binding buffer, 100 μL of binding buffer containing various amounts of unlabeled competitor ligand, and 100 μL of binding buffer containing ca. 100,000 cpm of ¹²⁵I-[M]PTH(1-21)(SEQ. ID. NO. 16) or ¹²⁵I-[Aib^{1,3},M]PTH(1-21)(SEQ. ID. NO. 17) (ca. 26 fmol; final volume=300 μL). Incubations were 4 to 6 h at 4° C., at which time near equilibrium conditions were attained. Cells were then placed on ice, the binding medium was removed, and the monolayer was rinsed three times with 0.5 mL of cold binding buffer. The cells were subsequently lysed with 0.5 mL 5N NaOH and counted for radioactivity. For each tracer and in each experiment, the non-specific binding was determined as the radioactivity that bound in the presence of the same unlabeled peptide at a concentration of 1 μM, and was ˜1% of total radioactivity added for each tracer. The maximum specific binding (B₀) was the total radioactivity bound in the absence of competing ligand, corrected for nonspecific binding, and for each tracer, ranged from 8% to 20% of the total radioactivity added. Nonlinear regression was used to calculate binding IC₅₀ values (see below). Scatchard transformations of homologous competition binding data derived from studies with 26 fmol of ¹²⁵I-[Aib^{1,3},M]PTH(1-21) (SEQ. ID. NO. 17) were employed for estimations of apparent equilibrium dissociation constant (kDapps) and total number of ligand binding sites (Bₘₐₓ), assuming a single class of binding sites and equal affinities of the iodinated and non iodinated ligand.
# The peptide PTH(1-34) ([Tyr³⁴]bPTH(1-34)NH₂) (SEQ. ID. NO. 10) and analogs containing substitutions at positions 6 and/or 10 in place of Gln and Asn, respectively, were evaluated in HKRK-B28 cells for the capacity to stimulate cAMP accumulation, and to inhibit the binding of ¹²⁵I-[Ala^{3,12}, Gln¹⁰, Har¹¹, Trp¹⁴,Arg¹⁹, Tyr²¹]PTH(1-21)-amide (SEQ. ID. NO. 30) tracer radioligand.
binder,measurement,setting,value
B1,cAMP EC50,[1],0.081 µM
same,cAMP Emax (%),[1],104%
B2,cAMP EC50,[2],330 µM
same,cAMP Emax (%),[2],26%
same,cAMP EC50,[1],320 µM
same,cAMP Emax (%),[1],14%
B3,cAMP EC50,[3],130 µM
same,cAMP Emax (%),[3],37%
B4,cAMP EC50,[2],11 µM
same,cAMP Emax (%),[2],88%
same,cAMP EC50,[1],39 µM
same,cAMP Emax (%),[1],79%
B5,cAMP Emax (%),[4],44%
same,cAMP EC50,[5],0.27 µM
same,cAMP Emax (%),[5],100%
same,cAMP EC50,[6],1.9 µM
same,cAMP Emax (%),[6],100%
same,IC50,[7],6 µM
B6,cAMP EC50,[4],> 100 µM
same,cAMP Emax (%),[4],4.5%
same,cAMP EC50,[5],0.17 µM
same,cAMP Emax (%),[5],104%
same,cAMP EC50,[6],4.9 µM
same,cAMP Emax (%),[6],105%
same,IC50,[7],4.5 µM
B7,cAMP EC50,[4],19 µM
same,cAMP Emax (%),[4],44%
same,cAMP EC50,[5],0.3 µM
same,cAMP Emax (%),[5],121%
same,cAMP EC50,[6],2.2 µM
same,cAMP Emax (%),[6],107%
same,IC50,[7],3.9 µM
B8,cAMP EC50,[1],0.146 µM
same,cAMP Emax (%),[1],101%
B9,cAMP EC50,[3],0.12 µM
same,cAMP Emax (%),[3],100%
B10,cAMP EC50,[2],160 µM
same,cAMP Emax (%),[2],41%
same,cAMP EC50,[1],170 µM
same,cAMP Emax (%),[1],42%
B11,cAMP EC50,[3],27 µM
same,cAMP Emax (%),[3],52%
B12,cAMP EC50,[3],40 µM
same,cAMP Emax (%),[3],52%
B13,cAMP EC50,[1],0.024 µM
same,cAMP Emax (%),[1],100%
